Numbering of substitutions follows the chain as printed. Names may count otherwise.
Columns and labels:
[1] = molecular target: the molecule itself; test: negative-stain electron microscopy
SEC = molecular target: the molecule itself; test: SEC
crystal structure = molecular target: the molecule itself; test: crystal structure

B1: NtrC1^C,WT, central (AAA+ ATPase) domain of NtrC1 of Aquifex aeolicus (domain or fragment)
chain: RKENELLRREKDLKEEEYVFESPKMKEILEKIKKISCAECPVLITGESGVGKEVVARLIHKLSDRSKEPFVALNVASIPRDIFEAELFGYEKGAFTGAVSSKEGFFELADGGTLFLDEIGELSLEAQAKLLRVIESGKFYRLGGRKEIEVNVRILAATNRNIKELVKEGKFREDLYYRLGVIEIEIPPLRERKEDIIPLANHFLKKFSRKYAKEVEGFTKSAQELLLSYPWYGNVRELKNVIERAVLFSEGKFIDRGELSCLVNSK
[1]
  stoichiometry N: 7

B2: NtrC1^C,R293A (domain or fragment, Aquifex aeolicus)
chain: B1 chain with R172A
SEC
  binding result: binds

B3: NtrC1^C,E239A, Walker-B variant of the central domain of NtrC1 of Aquifex aeolicus (domain or fragment)
chain: B1 chain with E118A
Crystal structure
  stoichiometry N: 7

Reference: publication PMC3001195 (Structure (London, England : 1993), 2010)
